From a protein production outcome set (Wang et al. 2014)

Assay: label from the status in PepcDB records
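Also: failed if final PepcDB status was selected cloned or expressed and not failed if soluble or beyond.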

| Sequence | protein production |
| --- | --- |
| MPTLKSYFLKDTSLRTEILAGATTFLTMVYIVFVNPKVLHDAGMDQGAVFTATCLITAFACALTGFIANTPIGVAPSVALNIYFSYSVVQGMGVDWQHALAMVFISGLLFLFLTLTKLRRLLVEAIPHNLQIAIVIGISLLIALIALENNQIIIGDQHNLMRLGSIIRPETGLFFLGFILILTLDYHKIPGAIIIGILSISVLSLILGLTSWQGLIAMPPSLEPTFLQLDFSGLSSIVALKTIFTFFLITVFDATGSLIGLLSPTIFKHEKNYYKRLTRSLTADAAASSLAGLMGSASTSPYIESATGIEAGGRTGLTALVIATGFILMLFLFPLAKMIPSFAVGPALLYVACCMIKHITNMKLQDITETAPCMVIIMMVPFTASIADGIGLGIILYTLLKLFTRQKPNPLIIVLSLVFTVFFLIN | failed |
| MSTDSDTTPDTEEAREQLIDLAADFYDQFADGEVPTMTIPTRTKSNIVFDEDEQVWVYGDRNSTRSAKTISGAEKILKAVYTIDFLSQQLEEDRSSTLRELYYLSESWDLDEAQFNTQDESNNLIEDLEIVSDVKREDFHMRPEESGAKVMGPLLLREQTNRGDREIHCQDDVGQGGYQIPNNPDTIEFLDNDAKFVLCVETGGMRDRLVENGFDDEYDALVVHLGGQPARATRRLIKRLHDELDLPVTVFTDGDPWSYRIFGSVSYGSIKSAHLSEYLATPEAQFIGIRPEDIVEYELPTDPLSDSDVNALESELEDPRFQTDFWEEQIELQLDINKKAEQQALASRGLDFVTETYLPERLDEMGIL | failed |
| MTEYKQEQEMEIEALEAILMDEFKEIHSSESGLNTSNRCFQITVTPQDDELEELAIPPVQLALVFSHTENYPDEAPLLDVKSIRGIHVSDLTILKEKLEQEASENLGMAMIYTLVSSAKDWLSEHYGQDDAAEFAEVEAAKEDEVIVPHGEPVTLETFLAWRERYEAELALERAKLMPESALTAPKEKKLTGRQWFESGRGRGTVVIADEEDEEEDEEDIDFEDEDFEDDEEDMLEHYLAEKSDSSAPPTRT | failed |
| QTLLQANPDPVLVADAETGKIVEANAAATGLLGRPREEIIGAHQTDLHPSGRAEAYASLFRRSLDEDGPMRALPDGTQIEVVTDEGTTVPVEVNATTVDLPDGRVVYGVFRDVSE | failed |
| MRTIYVIGIGTGSPEFLTLQAISGLRHAQAIVALDKGEQKSDLLALRQKIVDTHAPGTPIYAVTDPERDRNPDNYEEEVRRWHAERAHLLASTIRERTPDDGAVAFLVWGDPSLYDSTLRIIEHMRNLEDLHADVKVIPGITAVQVLTAEHGILINRIGEAIHITTGRNLPETSAKDRRNCVVMLDGKTAWQDVATEHTYMWWGAFLGTEQQVLRKGYVHEIGAQVAELKQQLRTEHGWIMDTYLLRELD | not failed |
| MIIMVTEVDVLVIGAGPAGSTAAKHAALGGADVLLIDKKSEIGAPKRCAEGVSIGGLESLGIEPNPRWITKKLDGVRMVSPNGTDVWLTSDKVELPEAGYILERKVFDKFMAMDAARAGSRIMVKTIATGMERTDDGYLVSAECMGEKFEIKARIVIAADGPESRVARWAGLNTATRPKDMESAAQFEMVGVEMEDNNCIEFYFGSVAPGGYALDIPEGDDIANVGLGVLSTETDKSAYEHLLEFVESCPATRNAQPVELNIGGDPVGGMPKKLVADSLMVVGDAAGQVNPLTGGGIISGMKGGMLAGQVAAAAVSEGDVTARRLGEYERLCREEIGDEISKYLKVKEYLLTLSDSELDSIAEAFQDVEFEKVSTTELVKKLIKVSPKALLKLGKLFLEHHHHHH | failed |
| MSCYNKALLIGNKVVVILVFLLCLVHSSESLRPLFACDPANGLTRTLRFCRANVPIHVRVQDLLGRLTLQEKIRNLVNNAAAVPRLGIGGYEWWSEALHGISDVGPGAKFGGAFPGATSFPQVITTAASFNQSLWEEIGRVVSDEARAMYNGGVAGLTYWSPNVNILRDPRWGRGQETPGEDPIVAAKYAASYVRGLQGTAAGNRLKVAACCKHYTAYDLDNWNGVDRFHFNAKVTQQDLEDTYNVPFKSCVYEGKVASVMCSYNQVNGKPTCADENLLKNTIRGQWRLNGYIVSDCDSVDVFFNQQHYTSTPEEAAARSIKAGLDLDCGPFLAIFTEGAVKKGLLTENDINLALANTLTVQMRLGMFDGNLGPYANLGPRDVCTPAHKHLALEAAHQGIVLLKNSARSLPLSPRRHRTVAVIGPNSDVTETMIGNYAGKACAYTSPLQGISRYARTLHQAGCAGVACKGNQGFGAAEAAAREADATVLVMGLDQSIEAETRDRTGLLLPGYQQDLVTRVAQASRGPVILVLMSGGPIDVTFAKNDPRVAAIIWAGYPGQAGGAAIANIIFGAANPGGKLPMTWYPQDYVAKVPMTVMAMRASGNYPGRTYRFYKGPVVFPFGFGLSYTTFTHSLAKSPLAQLSVSLSNLNSANTILNSSSHSIKVSHTNCNSFPKMPLHVEVSNTGEFDGTHTVFVFAEPPINGIKGLGVNKQLIAFEKVHVMAGAKQTVQVDVDACKHLGVVDEYGKRRIPMGEHKLHIGDLKHTILVQPQL | failed |
| ENGRYEYIVIGSEAAGVGLVRELTAAGKKVLAVDKSKEKIELLEDEGFDAVIADPTDESFYRSLDLEGVSAVLITGSDDEFNLKILKALRSVSDVYAIVRVSSPKKKEEFEEAGANLVVLVADAVKQAFMDKIKKMETL | not failed |
| AIAPLGEEKNGKCDGSIYVNNPHLDSMTDDILYHFNLGTSTHDLPKMFGDVKFVCVGGSPWRMKSFTEYIAKELGLVDPNAEYPNICAGTDRYAMYKVGPVLSVSHGMGIPSISIMLHELIKLLYHARCTDVTVVRIGTSGGIGLKPGTVVVTKQSVDSLFQPHLEQTILGKPVVRSTELDKELAEELLQCGKELGEFEIIIGNTMCTLDFYEGSNVFEDKCTRIAAYSFKIHVL | failed |
| GLGFMALDEDLRIIYVNSGCLRHVRRSRDELLGRVVTEVLPETQGSYFDALCRKVLATGREQQTRVDSLYSPGMTIEVTAAADSGALVVHFRDVTAE | not failed |
| SQEQAQTTDWRATLKTIRNGVHKIDTYLNAALDLLGGEDGLCQYKCSDGSKPFPRYGYKPSPPNGCGSPLFGVHLNIGIPSLTKCCNQHDRCYETCGKSKNDCDEEFQYCLSKICRDVQKTLGLTQHVQACETTVELLFDSVIHLGCKPYLDSQRAACRCHYEEKTDL | not failed |
| MIGAILAGGYGKRLKPITDSIPKALVEIKDNYTIMDRQLFDFSIMGIEAVYILSGYLGNKIEERYGSRYRDMNIYYLREEKPLGTLYSLRNLIDEVKDDDIVLRNGDTVTDVNFLNFLKKAQDQKYYITMYVTRMKSPFGIVETFGDQIVQFREKPELNHYINAGLYYIKSDAFPYFFEKYIDRDLETTVFPRMAREGLIGSYTEEAMWIGIDSEKDLERIRADYRNREDYPWGYLKVLYDDDRSRLLEYAIKAGSDTEIDCGDGCILRIQSGLGTFGDSSDEKFRNGDVRSISGKVRVNAFENTRLELIISKKLEHHHHHH | failed |
| MISVAQYLEAATRPNTERAYAAATRHFEIEWGGHLPTTAEQVARYLAAYAGQLALNTLRHRLAALAQWHQAHGFADPTRAPVVRKVLKGIQTVHPSQEKRATPLQLTQLGQVVDWLDGAATAAGTRDDAAGRLRHMRDRAFVLLGFWRGFRGDELVRLQVQDLELVAGEGMTCFLPHSKSDRQHAGTTYKVPALSRWCPVAATMAWVAAAALHEGPLFRAVNQWGGIAAAPLHPNSLVPLLRRIFREAGLSSPNDYSGHSLRRGFAGWANANGWDVKALMEYVGWRDVHSAMRYLDGADPFARQRIEASVSPATPPLLALAAPAPDPVPTTAVEATVTLTRFNSRVRGLAKAHRLIEQICLQPHQAQRLNADGTRYRLAIAAVDEAAFEETIAMLLDEMHRIADNHQCFLAVALRDEAGGRHWD | failed |
| EPLTIREYRPEDLEALLPLYEQLGYPTRTDELRDRLAGLLSHEDYHLLVAECDGQLVAFIGYARMYFFEHDGSYYRILALAVS | failed |
| MNGHAFFFAGVRLTALPSGALWWPAERLLCVSDLHLGKAERLARRGGTLLPPYETQATLARLEADLEATGAERVLCLGDSFDDGAAADGLAEPERLWLRRLMTGRDWIWILGNHD | failed |
| MRCRFPYDGKQRIILEEGYPVYECNKFCGCSRTCQNRVLQNGIRAKLEVFRTESKGWGLRACEHILRGTFVCEYIGEVLDQQEANKRRNQYGNGDCSYILDIDANINDIGRLMEEELDYAIDATTHGNISRFINHSCSPNLVNHQVIVESMESPLAHIGLYASMDIAAGEEITRDYGRRPVPSEQENEHPCHCKATNCRGLLS | failed |
| MMDCDHLLRLGMTAKKILENGKGILAADETPKTLGRRFEKLGITNTEENRRKFREILFSTKGIERYIGGVILNQETFEQTSGSGVPLTELLKKKGIEIGIKLDKGLIDYKEKEKISVGLEDLDLRCKSSAFKDATFAKWRSLFYFYDGIPSEDCINENCSILAKYAIICQKNGLVPIVEPEVFLEGDYSMKRSYEVTRQILSTLMKYLNYELVYIPGVLIKASYVTSGQLSNEKYTPKKVATFTLRALLSTIPCGIPGIVFLSGGHGSEDAIGFLNAINMERGCRTWSLSFSFARALTDGVLETWRGDDSNIEEAQKILLETSFKACRGAEGKLWDQE | not failed |
| MEIGVVGKPNVGKSTFFSAATLVDVEIANYPFTTIEANVGVTYAITDHPCKELGCSPNPQNYEYRNGLALIPVKMVDVAGLVPGAHEGRGLGNKFLDDLRMASALIHVVDATGKTDPEGQPTDYHDPVEDIEFLEREIDYWIYGILSKGWDKFAKRIKLQKIKLESAIAEHLSGIGVNENDVWEAMHKLNLPEDPTKWSQDDLLAFASEIRRVNKPMVIAANKADAASDEQIKRLVREEEKRGYIVIPTSAAAELTLRKAAKAGFIEYIPGASEFKVLRDMSEKQKRALMVIKEKVLDRFGSTGVQEVINRVVFDLLKLIPVYPVHDENKLTDQFGNVLPHVFLMKKGSTPRDLAFKVHTDLGKGFLYAINARTKRRVGEDYELQFNDIVKIVSVTR | not failed |
| MGGKTKKHAMRLFDRIAEKYDLLNRILSFGMDTKWRKRVVELILEVNPEKVLDLATGTGDVARLLKRKAPHLEITGLDSSSKMLEIAEKRLKDGEFIVGDAHNLPFYDRSFDAITVAFGFRNFSDRRRVLRECRRVLKRKGRLVILELLPPNTKRFTGKIYSFYLKTWVPFVGGLFSGDFHAYRYLSTSVLNFLTPDQIVEMMKEEGFEVSFEPLFFSVAGIFIGDLIWLEHHHHHH | failed |
| MSDSGRADALLAELPRDGRGRLKVFLGAAPGVGKTYAMLQAAHSQLRQGVKVLAGVVETHGRAETEALLSGLPQQPLVRSEYRGVLLEEMDLDGLLKAKPKLVLVDELAHSNAPGSRHAKRWQDIQELLAAGIDVFTTVNVQHLESLNDQVRGITGVQVRETLPDWVLQEAYELLLVDLPPRELLERLRDGKVYVPEQARAAIDAFFTQTNLTALRELAMQTAAAQVDNDLAQGYRQLGQAAPAVRGRLLVGIDGDAQAERLVRHASRVAQRRHLPWSLVHVDNGRLRDEQARLRLQAAQQLAERLGGEVVLLRAGEVAKTLIQHAAERRASLLLVGQSRRRWRRRWFGGGLAARLLRNADGLEINVLDSEPQPHQPGLRVKHSLIWFDYVLAVLATLLASALAWGVASVLPLPNISLVFLAAVLLVAVRSSLGPALACAALSFLSYDFLFIPPNFSLAIQREEDVLTLLFFLLMAALTGNLAARQRRQLQALRDTQEETGELLDLSRKLTAATDRQAVISAAAQHLNGRDELRVCLINRDGQGGWKVETGGSPQFSEAERAAADWAWQHDQPAGLGTGTLPFGRWWWWPLSVDDGPLGLLGVCPREGEEFSGQRRRLLTALSQPLAQALARARLAEDLEAARLHGETEQLRSALLASVSHDLRTPLTSMRGSIDSLLALGEAIPLEDRRELLEGTRDEAERLDRYIQNLLDMTRLGHGALKLARDWVAPGDIVGSALNRLRAVLAPLQVATELPADLPLLYVHAALIEQALVNVLENAARFSPLQGHLQLKVSASEQELSFAVSDEGPGIPEDERAKIFDMFYTAARGDRGGQGTGLGLAICQGMVGAHGGHISVAEGIGGKGTCITLHLPLQTQPELESDL | failed |
